Measured values as given in patent publication US7052851B2, “Crystal structure of cysteine protease” (Novartis International AG, priority 1996, dated 2006).
The star is where a group is joined. CH2F = FC*

Biological target: T1, recombinant human CPP32 (Homo sapiens, UniProt P42574)
T1 construct: β-CHAIN; 29; 175; CPP32 P17 SUBUNIT; α-CHAIN; 176; 277; CPP32 P12 SUBUNIT; made in house; host or cells: E. coli BL21 (DE3), pET21b
T1 sequence (P42574 29-175): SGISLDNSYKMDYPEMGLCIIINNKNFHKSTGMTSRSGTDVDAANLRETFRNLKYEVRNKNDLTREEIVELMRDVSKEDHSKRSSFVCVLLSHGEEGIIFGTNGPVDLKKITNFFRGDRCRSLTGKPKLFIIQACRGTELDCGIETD
T1 sequence (P42574 176-277): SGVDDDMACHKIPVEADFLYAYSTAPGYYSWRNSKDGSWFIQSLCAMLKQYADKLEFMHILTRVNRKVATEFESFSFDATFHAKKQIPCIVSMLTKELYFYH
Experiment: CPP32 protease activity inhibition (enzyme treated with irreversible inhibitor before crystallization)
Format: biochemical
Details: slight excess (1.6×) of inhibitor added to purified recombinant human CPP32 (C-terminal 6His) in 50 mM DTT, 50 mM HEPES, pH 8.0, on ice
Description: As defined herein, purified CPP32 is more than 95% homogeneous. Protein homogeneity is determinable according to analytical methods well-known in the art, e.g. sequence analysis, electrophoresis, spectroscopic or chromatographic techniques. The purified protein is enzymatically active. Appropriate assays for determining CPP32 protease activity towards a suitable substrate, e.g. a natural substrate, such as PARP, or a synthetic substrate which is cleavable by CPP32, is known in the art. Advantagously, a peptide, such as aminomethylcoumarin, is used as synthetic substrate. […]
Recombinant human CPP32 expressed in a soluble form in E. coli (E. coli BL21) is purified to homogeneity by Ni^2+ chromatography using an imidazole gradient (60 mM-1 M). […] The purified CPP32 protein is more than 95% homogeneous, as determined by SDS-PAGE (10–20% gradient gel), reverse phase high performance liquid chromatography (RP-HPLC), MALDI-TOF mass spectrometry, N-terminal sequence and amino acid analysis. […] The purified CPP32 protein which is a (p17p12)2 tetramer in solution, as analyzed by dynamic light scattering, compares to the published CPP32 amino acid sequence (Fernandes-Alnemri, T., Litwack, G. & Alnemri, E. S. (1994). J. Biol. Chem. 269, 30761–30764, FIG. 1, p.30762) as follows: […]

enzyme inhibited: 99.9%
Substance: Ac-Asp-Val-Ala-Asp-fluoromethylketone (Ac-DVAD-CH2F; SMILES CC(=O)N[C@@H](CC(=O)O)C(=O)N[C@H](C(=O)N[C@@H](C)C(=O)N[C@@H](CC(=O)O)C(=O)CF)C(C)C)
